{"source": "patent US20210024615A1", "about": "(LIVERPOOL SCHOOL OF TROPICAL MEDICINE, published 2021)"}
{"molecular_target": "T1, IgG1-Fc (human, UniProt P01857 104-330 = IgG part)", "T1 construct": "domain: Fc", "experiment": "ELISA"}
{"binder": "tetrameric human DC-SIGN (receptor, UniProt Q9NNX6 66-404, looked up) SISQEQSRQDAIYQNLTQLKAAVGELSEKSKLQEIYQELTQLKAAVGELPEKSKLQEIYQELTRLKAAVGELPEKSKLQEIYQELTWLKAAVGELPEKSKMQEIYQELTRLKAAVGELPEKSKQQEIYQELTRLKAAVGELPEKSKQQEIYQELTRLKAAVGELPEKSKQQEIYQELTQLKAAVERLCHPCPWEWTFFQGNCYFMSNSQRNWHDSITACKEVGAQLVVIKSAEEQNFLQLQSSRSNRFTWMGLSDLNQEGTWQWVDGSPLLPSFKQYWNRGEPNNVGEEDCAEFSGNGWNDDKCNLAKFWICKKSAASCSRDEEQFLSPAPATPNPPPA", "binding result": "no binding"}
{"binder": "Siglec-1 (receptor, UniProt Q9BZZ2 20-1641, looked up) SWGVSSPQDVQGVKGSCLLIPCIFSFPADVEVPDGITAIWYYDYSGQRQVVSHSADPKLVEARFRGRTEFMGNPEHRVCNLLLKDLQPEDSGSYNFRFEISEVNRWSDVKGTLVTVTEEPRVPTIASPVELLEGTEVDFNCSTPYVCLQEQVRLQWQGQDPARSVTFNSQKFEPTGVGHLETLHMAMSWQDHGRILRCQLSVANHRAQSEIHLQVKYAPKGVKILLSPSGRNILPGELVTLTCQVNSSYPAVSSIKWLKDGVRLQTKTGVLHLPQAAWSDAGVYTCQAENGVGSLVSPPISLHIFMAEVQVSPAGPILENQTVTLVCNTPNEAPSDLRYSWYKNHVLLEDAHSHTLRLHLATRADTGFYFCEVQNVHGSERSGPVSVVVNHPPLTPVLTAFLETQAGLVGILHCSVVSEPLATLVLSHGGHILASTSGDSDHSPRFSGTSGPNSLRLEIRDLEETDSGEYKCSATNSLGNATSTLDFHANAARLLISPAAEVVEGQAVTLSCRSGLSPTPDARFSWYLNGALLHEGPGSSLLLPAASSTDAGSYHCRARDGHSASGPSSPAVLTVLYPPRQPTFTTRLDLDAAGAGAGRRGLLLCRVDSDPPARLQLLHKDRVVATSLPSGGGCSTCGGCSPRMKVTKAPNLLRVEIHNPLLEEEGLYLCEASNALGNASTSATFNGQATVLAIAPSHTLQEGTEANLTCNVSREAAGSPANFSWFRNGVLWAQGPLETVTLLPVARTDAALYACRILTEAGAQLSTPVLLSVLYPPDRPKLSALLDMGQGHMALFICTVDSRPLALLALFHGEHLLATSLGPQVPSHGRFQAKAEANSLKLEVRELGLGDSGSYRCEATNVLGSSNTSLFFQVRGAWVQVSPSPELQEGQAVVLSCQVHTGVPEGTSYRWYRDGQPLQESTSATLRFAAITLTQAGAYHCQAQAPGSATTSLAAPISLHVSYAPRHVTLTTLMDTGPGRLGLLLCRVDSDPPAQLRLLHGDRLVASTLQGVGGPEGSSPRLHVAVAPNTLRLEIHGAMLEDEGVYICEASNTLGQASASADFDAQAVNVQVWPGATVREGQLVNLTCLVWTTHPAQLTYTWYQDGQQRLDAHSIPLPNVTVRDATSYRCGVGPPGRAPRLSRPITLDVLYAPRNLRLTYLLESHGGQLALVLCTVDSRPPAQLALSHAGRLLASSTAASVPNTLRLELRGPQPRDEGFYSCSARSPLGQANTSLELRLEGVRVILAPEAAVPEGAPITVTCADPAAHAPTLYTWYHNGRWLQEGPAASLSFLVATRAHAGAYSCQAQDAQGTRSSRPAALQVLYAPQDAVLSSFRDSRARSMAVIQCTVDSEPPAELALSHDGKVLATSSGVHSLASGTGHVQVARNALRLQVQDVPAGDDTYVCTAQNLLGSISTIGRLQVEGARVVAEPGLDVPEGAALNLSCRLLGGPGPVGNSTFAWFWNDRRLHAEPVPTLAFTHVARAQAGMYHCLAELPTGAAASAPVMLRVLYPPKTPTMMVFVEPEGGLRGILDCRVDSEPLASLTLHLGSRLVASSQPQGAPAEPHIHVLASPNALRVDIEALRPSDQGEYICSASNVLGSASTSTYFGVRALHRLHQFQQ", "binding result": "no binding"}
{"binder": "CD23 (receptor, UniProt P06734 48-321, looked up) DTTQSLKQLEERAARNVSQVSKNLESHHGDQMAQKSQSTQISQELEELRAEQQRLKSQDLELSWNLNGLQADLSSFKSQELNERNEASDLLERLREEVTKLRMELQVSSGFVCNTCPEKWINFQRKCYYFGKGTKQWVHARYACDDMEGQLVSIHSPEEQDFLTKHASHTGSWIGLRNLDLKGEFIWVDGSHVDYSNWAPGEPTSRSQGEDCVMMRGSGRWNDAFCDRKLGAWVCDRLATCTPPASEGSAESMGPDSRPDPDGRLPTPSAPLHS", "binding result": "no binding"}
{"binder": "MMR (receptor, UniProt P22897 19-1383, looked up) LLDTRQFLIYNEDHKRCVDAVSPSAVQTAACNQDAESQKFRWVSESQIMSVAFKLCLGVPSKTDWVAITLYACDSKSEFQKWECKNDTLLGIKGEDLFFNYGNRQEKNIMLYKGSGLWSRWKIYGTTDNLCSRGYEAMYTLLGNANGATCAFPFKFENKWYADCTSAGRSDGWLWCGTTTDYDTDKLFGYCPLKFEGSESLWNKDPLTSVSYQINSKSALTWHQARKSCQQQNAELLSITEIHEQTYLTGLTSSLTSGLWIGLNSLSFNSGWQWSDRSPFRYLNWLPGSPSAEPGKSCVSLNPGKNAKWENLECVQKLGYICKKGNTTLNSFVIPSESDVPTHCPSQWWPYAGHCYKIHRDEKKIQRDALTTCRKEGGDLTSIHTIEELDFIISQLGYEPNDELWIGLNDIKIQMYFEWSDGTPVTFTKWLRGEPSHENNRQEDCVVMKGKDGYWADRGCEWPLGYICKMKSRSQGPEIVEVEKGCRKGWKKHHFYCYMIGHTLSTFAEANQTCNNENAYLTTIEDRYEQAFLTSFVGLRPEKYFWTGLSDIQTKGTFQWTIEEEVRFTHWNSDMPGRKPGCVAMRTGIAGGLWDVLKCDEKAKFVCKHWAEGVTHPPKPTTTPEPKCPEDWGASSRTSLCFKLYAKGKHEKKTWFESRDFCRALGGDLASINNKEEQQTIWRLITASGSYHKLFWLGLTYGSPSEGFTWSDGSPVSYENWAYGEPNNYQNVEYCGELKGDPTMSWNDINCEHLNNWICQIQKGQTPKPEPTPAPQDNPPVTEDGWVIYKDYQYYFSKEKETMDNARAFCKRNFGDLVSIQSESEKKFLWKYVNRNDAQSAYFIGLLISLDKKFAWMDGSKVDYVSWATGEPNFANEDENCVTMYSNSGFWNDINCGYPNAFICQRHNSSINATTVMPTMPSVPSGCKEGWNFYSNKCFKIFGFMEEERKNWQEARKACIGFGGNLVSIQNEKEQAFLTYHMKDSTFSAWTGLNDVNSEHTFLWTDGRGVHYTNWGKGYPGGRRSSLSYEDADCVVIIGGASNEAGKWMDDTCDSKRGYICQTRSDPSLTNPPATIQTDGFVKYGKSSYSLMRQKFQWHEAETYCKLHNSLIASILDPYSNAFAWLQMETSNERVWIALNSNLTDNQYTWTDKWRVRYTNWAADEPKLKSACVYLDLDGYWKTAHCNESFYFLCKRSDEIPATEPPQLPGRCPESDHTAWIPFHGHCYYIESSYTRNWGQASLECLRMGSSLVSIESAAESSFLSYRVEPLKSKTNFWIGLFRNVEGTWLWINNSPVSFVNWNTGDPSGERNDCVALHASSGFWSNIHCSSYKGYICKRPKIIDAKPTHELLTTKADTRKMDPSK", "binding result": "no binding"}
{"binder": "dectin-1 (receptor, UniProt Q9BXN2-2 66-201, looked up, also called dec-1) TMGVLSSPCPPNWIIYEKSCYLFSMSLNSWDGSKRQCWQLGSNLLKIDSSNELGFIVKQVSSQPDNSFWIGLSRPQTEVPWLWEDGSTFSSNLFQIRTTATQENPSPNCVWIHVSVIYDQLCSVPSYSICEKKFSM", "binding result": "no binding"}
{"binder": "dectin-2 (receptor, UniProt Q6EIG7 46-209, looked up, also called dec-2) TYGETGKRLSELHSYHSSLTCFSEGTKVPAWGCCPASWKSFGSSCYFISSEEKVWSKSEQNCVEMGAHLVVFNTEAEQNFIVQQLNESFSYFLGLSDPQGNNNWQWIDKTPYEKNVRFWHLGEPNHSAEQCASIVFWKPTGWGWNDVICETRRNSICEMNKIYL", "binding result": "no binding"}
{"binder": "Siglec-3 (receptor, UniProt P20138 18-259, looked up) DPNFWLQVQESVTVQEGLCVLVPCTFFHPIPYYDKNSPVHGYWFREGAIISRDSPVATNKLDQEVQEETQGRFRLLGDPSRNNCSLSIVDARRRDNGSYFFRMERGSTKYSYKSPQLSVHVTDLTHRPKILIPGTLEPGHSKNLTCSVSWACEQGTPPIFSWLSAAPTSLGPRTTHSSVLIITPRPQDHGTNLTCQVKFAGAGVTTERTIQLNVTYVPQNPTTGIFPGDGSGKQETRAGVVH", "binding result": "no binding"}
{"binder": "clec-4d (receptor, UniProt Q8WXI8 39-215, looked up) CLVTHHNFSRCKRGTGVHKLEHHAKLKCIKEKSELKSAEGSTWNCCPIDWRAFQSNCYFPLTDNKTWAESERNCSGMGAHLMTISTEAEQNFIIQFLDRRLSYFLGLRDENAKGQWRWVDQTPFNPRRVFWHKNEPDNSQGENCVVLVYNQDKWAWNDVPCNFEASRICKIPGTTLN", "binding result": "no binding"}
{"binder": "Siglec-4 (receptor, UniProt P20916 20-516, looked up, also called MAG) GHWGAWMPSSISAFEGTCVSIPCRFDFPDELRPAVVHGVWYFNSPYPKNYPPVVFKSRTQVVHESFQGRSRLLGDLGLRNCTLLLSNVSPELGGKYYFRGDLGGYNQYTFSEHSVLDIVNTPNIVVPPEVVAGTEVEVSCMVPDNCPELRPELSWLGHEGLGEPAVLGRLREDEGTWVQVSLLHFVPTREANGHRLGCQASFPNTTLQFEGYASMDVKYPPVIVEMNSSVEAIEGSHVSLLCGADSNPPPLLTWMRDGTVLREAVAESLLLELEEVTPAEDGVYACLAENAYGQDNRTVGLSVMYAPWKPTVNGTMVAVEGETVSILCSTQSNPDPILTIFKEKQILSTVIYESELQLELPAVSPEDDGEYWCVAENQYGQRATAFNLSVEFAPVLLLESHCAAARDTVQCLCVVKSNPEPSVAFELPSRNVTVNESEREFVYSERSGLVLTSILTLRGQAQAPPRVICTARNLYGAKSLELPFQGAHRLMWAKIGP", "binding result": "no binding"}
{"binder": "clec-4a (receptor, UniProt Q9UMR7 70-237, looked up, also called DCIR) QKYSQLLEKKTTKELVHTTLECVKKNMPVEETAWSCCPKNWKSFSSNCYFISTESASWQDSEKDCARMEAHLLVINTQEEQDFIFQNLQEESAYFVGLSDPEGQRHWQWVDQTPYNESSTFWHPREPSDPNERCVVLNFRKSPKRWGWNDVNCLGPQRSVCEMMKIHL", "binding result": "no binding"}
